Experimental data: the supplement of paper PMC11811203

B1: THAP1; numbered along this chain (parent)
chain: MVQSCSAYGCKNRYDKDKPVSFHKFPLTRPSLCKEWEAAVRRKNFKPTKYSSICSEHFTPDCFKRECNNKLLKENAVPTIFLCTEPHDKKEDLLEPQEQLPPPPLPPPVSQVDAAIGLLMPPLQTPVNLSVFCDHNYTVEDTMHQRKRIHQLEQQVEKLRKKLKTAQQRCRRQERQLEKLKEVVHFQKEKDDVSERGYVILPNDYFEIVEVPA

Variants of: B1
Test: THAP1 transcriptional activity (GFP+/GFP- enrichment relative to wild-type constructs) (ratio to WT); higher = more THAP1 activity (PSMB5 reporter activation)
Settings: with PSMB5 promoter-GFP reporter
Experimental: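 Deep mutational scan of human THAP1. Site-saturation single amino acid variant library (residues 2-213) was expressed by lentivirus at MOI ~0.3 in THAP1-knockout HEK-293T cells carrying an endogenous PSMB5 promoter-GFP knock-in reporter. Five days post-transduction, BFP+ cells were FACS-sorted into GFP dim and GFP bright populations and variants were counted by Illumina sequencing. Activity is the GFP-bright/GFP-dim read fold change, mean of 2 replicates, divided by the mean fold change of wild-type (synonymous) constructs in the same screen pool; WT = 1.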

THAP1 transcriptional activity of substitutions, site by site:
R42: Q 0.202; D 0.0738; K 0.189; P 0.0977; C 0.114; G 0.0813; E 0.118; A 0.127; L 0.104; I 0.181; V 0.136; S 0.158; F 0.116; T 0.103; M 0.0797; W 0.128; H 0.105; Y 0.103
K46: L 0.23; P 0.126; W 0.148; I 0.465; G 0.0852; R 0.568; N 0.295; F 0.339; M 0.442; C 0.377; T 0.869; D 0.0595; A 0.436; E 0.212; Q 0.581; Y 0.335; V 0.455; H 0.654; S 0.379
T59: E 1.07; D 0.292; C 0.138; A 0.736; G 0.413; F 0.186; H 0.511; I 0.147
T48: Q 0.0994; Y 0.0779; V 0.12; G 0.419; F 0.109; H 0.102; A 0.107; L 0.115; P 0.174; S 0.729; M 0.138; R 0.132; I 0.123; K 0.158; C 0.128; E 0.0991; D 0.113; N 0.545; W 0.0814
F58: D 0.0836; R 0.046; L 0.121; I 0.0956; G 0.064; Q 0.0792; A 0.0948; V 0.115; P 0.0346; K 0.0827; T 0.0696; W 0.143; E 0.149; Y 0.153; N 0.0722; C 0.0689; M 0.105; S 0.0937; H 0.131
S51: C 0.128; L 0.111; G 0.0575; R 0.0935; T 0.421; P 0.118; M 0.26; E 0.185; N 0.16; K 0.121; Y 0.0754; I 0.124; A 0.32; Q 0.0846; V 0.102; D 0.0561; F 0.102; W 0.122; H 0.145
K43: T 0.689; S 0.623; Q 1.02; R 0.716; C 0.621; L 0.454; G 0.329; Y 0.365; M 0.434; F 0.153; A 0.587; W 0.278; V 0.726; D 0.503; H 0.626; E 0.598; I 0.615; P 0.957
C54: M 0.0985; Y 0.124; N 0.106; S 0.154; Q 0.0652; H 0.0812; T 0.0761; A 0.0793; K 0.097; I 0.0624; V 0.0511; D 0.178; W 0.107; G 0.0692; L 0.0556; F 0.105; R 0.0929; E 0.0874; P 0.234
I53: M 0.194; G 0.0813; N 0.0864; Q 0.0507; R 0.0647; E 0.101; W 0.052; F 0.0519; P 0.0932; A 0.136; C 0.164; K 0.0685; D 0.133; H 0.1; V 0.447; S 0.112; Y 0.141; T 0.111
S55: I 0.114; V 0.101; K 0.0934; N 0.147; W 0.0398; L 0.106; P 0.0679; Y 0.109; C 0.0655; T 0.128; G 0.185; R 0.113; D 0.077; E 0.127; Q 0.168; M 0.0662; F 0.084; H 0.0394; A 0.112
Y50: G 0.1; V 0.12; A 0.294; F 0.616; K 0.0751; E 0.108; D 0.129; P 0.103; M 0.091; R 0.09; I 0.112; H 0.759; S 0.268; L 0.135; Q 0.0845; C 0.275; N 0.389; T 0.13
F45: T 0.0941; P 0.114; E 0.0902; C 0.027; R 0.146; Y 0.154; I 0.0544; A 0.0632; M 0.12; K 0.0558; D 0.0693; N 0.108; S 0.0855; G 0.0858; V 0.0786; Q 0.128; L 0.142; H 0.161
H57: M 0.138; Q 0.0983; F 0.126; L 0.107; N 0.0635; C 0.196; K 0.126; T 0.109; P 0.0956; D 0.0578; I 0.102; E 0.0678; A 0.116; W 0.0852; Y 0.115; S 0.121; R 0.183; V 0.105; G 0.0681
P47: E 0.173; S 0.14; D 0.108; L 0.242; C 0.229; Q 0.104; N 0.138; H 0.106; K 0.111; R 0.0941; W 0.0629; I 0.36; A 0.896; Y 0.114; F 0.0757; V 0.712; T 0.151; G 0.111
K49: F 0.122; N 0.177; E 0.105; V 0.257; M 0.232; W 0.1; T 0.138; Y 0.0951; A 0.22; R 0.427; Q 0.317; I 0.398; D 0.12; P 0.264; C 0.185; S 0.261; G 0.123; L 0.234; H 0.0815
E56: D 1.26; W 0.249; K 0.472; Q 0.873; R 0.389; A 0.98; H 0.253; Y 0.194; M 0.509; I 0.6; G 0.114; T 0.336; S 0.473; F 0.363; L 0.526; V 0.83; P 0.0876; N 0.344; C 0.263
S52: L 0.606; A 1.55; T 1.41; K 0.641; V 1.14; Q 0.261; G 0.141; E 0.0459; I 0.379; P 0.096; W 0.089; D 0.109; N 0.469; F 0.325; C 1.57; Y 0.46; M 0.633; H 0.251
R41: N 0.809; W 0.182; L 0.233; Y 0.274; M 0.475; P 0.0904; V 0.131; Q 0.878; S 0.809; T 0.171; K 1.05
N44: F 0.301; R 0.178; P 0.0859; S 0.494; A 0.194; C 0.476; W 0.123; K 0.462; G 1.06; Y 0.297; D 1.16; L 0.205; M 0.177; V 0.111; T 0.439; E 0.348; H 0.574; I 0.118
